To fix the notation:
B1: BBSome complex member BBS1 (Homo sapiens), Q8NFJ9 (parent)
chain: MAAASSSDSDACGAESNEANSKWLDAHYDPMANIHTFSACLALADLHGDGEYKLVVGDLGPGGQQPRLKVLKGPLVMTESPLPALPAAAATFLMEQHEPRTPALALASGPCVYVYKNLRPYFKFSLPQLPPNPLEQDLWNQAKEDRIDPLTLKEMLESIRETAEEPLSIQSLRFLQLELSEMEAFVNQHKSNSIKRQTVITTMTTLKKNLADEDAVSCLVLGTENKELLVLDPEAFTILAKMSLPSVPVFLEVSGQFDVEFRLAAACRNGNIYILRRDSKHPKYCIELSAQPVGLIRVHKVLVVGSTQDSLHGFTHKGKKLWTVQMPAAILTMNLLEQHSRGLQAVMAGLANGEVRIYRDKALLNVIHTPDAVTSLCFGRYGREDNTLIMTTRGGGLIIKILKRTAVFVEGGSEVGPPPAQAMKLNVPRKTRLYVDQTLREREAGTAMHRAFQTDLYLLRLRAARAYLQALESSLSPLSTTAREPLKLHAVVQGLGPTFKLTLHLQNTSTTRPVLGLLVCFLYNEALYSLPRAFFKVPLLVPGLNYPLETFVESLSNKGISDIIKVLVLREGQSAPLLSAHVNMPGSEGLAAA

In the experiment the parent is B1. Conditions: with Lepr.
Turning to M390R, the “effect of a mutation on the interaction” value is “decreasing interaction”.

The values are drawn from IntAct's records for PubMed 19150989.
